Measurements from PMC9482650, “Quantitative fragmentomics allow affinity mapping of interactomes” (Nature Communications, 2022).
Blank lines part the entries; values can stand above or below the binder they belong to.

Key:
Test in all cases: holdup assay
Design in all cases: key: below the threshold = too weak to quantify, mostly under pKd 3.1 to 4
[1] = molecular target: DLG4_1, P78352
[2] = molecular target: T1, DLG3_3, Q92796
T1 sequence (Q92796 374-475, limits assumed, looked up): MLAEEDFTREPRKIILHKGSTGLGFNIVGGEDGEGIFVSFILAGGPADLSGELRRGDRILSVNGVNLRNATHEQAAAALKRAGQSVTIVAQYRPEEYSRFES

[3] = molecular target: NHERF4_2, Q86UT5
[4] = molecular target: T2, NHERF3_1, Q5T2W1
T2 sequence (Q5T2W1 4-100, limits assumed, looked up): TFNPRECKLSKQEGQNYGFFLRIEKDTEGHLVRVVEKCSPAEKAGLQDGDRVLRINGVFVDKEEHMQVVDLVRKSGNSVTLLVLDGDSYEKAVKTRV

[5] = molecular target: Inadl_4, Q8NI35
[6] = molecular target: CASK, O14936
[7] = molecular target: GRIP2_3, Q9C0E4
[8] = molecular target: LNX1_1, Q8TBB1
[9] = molecular target: T3, APBA3_1, O96018
T3 sequence (O96018 389-490, limits assumed, looked up): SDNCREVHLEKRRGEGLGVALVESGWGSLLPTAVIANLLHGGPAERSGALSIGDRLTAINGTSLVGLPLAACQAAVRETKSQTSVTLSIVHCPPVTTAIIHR

[10] = molecular target: GRIP2_6, Q9C0E4
[11] = molecular target: T4, TJP3_3, O95049
T4 sequence (O95049 375-456, limits assumed, looked up): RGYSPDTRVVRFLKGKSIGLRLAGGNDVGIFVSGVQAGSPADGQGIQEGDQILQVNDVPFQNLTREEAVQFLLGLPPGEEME

[12] = molecular target: NHERF2_2, Q15599
[13] = molecular target: T5, NHERF3_3, Q5T2W1
T5 sequence (Q5T2W1 238-333, limits assumed, looked up): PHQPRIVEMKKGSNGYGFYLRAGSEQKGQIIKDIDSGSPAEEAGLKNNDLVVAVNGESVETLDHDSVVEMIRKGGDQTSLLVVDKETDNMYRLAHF

[14] = molecular target: DLG1_3, Q12959
[15] = molecular target: T6, SHANK1, Q9Y566
T6 sequence (Q9Y566 658-767, limits assumed, looked up): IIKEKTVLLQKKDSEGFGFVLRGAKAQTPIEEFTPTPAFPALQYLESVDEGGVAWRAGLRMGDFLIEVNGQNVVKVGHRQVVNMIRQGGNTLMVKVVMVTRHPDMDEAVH

[16] = molecular target: FRMPD3, Q5JV73
[17] = molecular target: T7, APBA1_2, Q02410
T7 sequence (Q02410 742-832, limits assumed, looked up): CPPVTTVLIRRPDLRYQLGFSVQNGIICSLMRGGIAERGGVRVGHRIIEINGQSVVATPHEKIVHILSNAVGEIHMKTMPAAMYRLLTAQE

[18] = molecular target: LIMK2, P53671
[19] = molecular target: Inadl_8, Q8NI35
[20] = molecular target: T8, PDZD7_3, Q9H5P4
T8 sequence (Q9H5P4 857-944, limits assumed, looked up): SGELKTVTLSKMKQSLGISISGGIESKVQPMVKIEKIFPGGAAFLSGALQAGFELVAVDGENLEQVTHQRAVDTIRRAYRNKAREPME

[21] = molecular target: LAP2, Q96RT1
[22] = molecular target: GOPC, Q9HD26
[23] = molecular target: T9, LNX2_3, Q8N448
T9 sequence (Q8N448 463-564, limits assumed, looked up): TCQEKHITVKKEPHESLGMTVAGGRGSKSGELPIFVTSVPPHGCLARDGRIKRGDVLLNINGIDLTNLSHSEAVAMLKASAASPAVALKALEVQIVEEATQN

[24] = molecular target: T10, RHPN1, Q8TCX5
T10 sequence (Q8TCX5 508-602, limits assumed, looked up): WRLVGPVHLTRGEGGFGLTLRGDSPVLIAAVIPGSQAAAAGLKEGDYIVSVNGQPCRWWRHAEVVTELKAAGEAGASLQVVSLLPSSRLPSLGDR

[25] = molecular target: TJP2_1, Q9UDY2
[26] = molecular target: FRMPD2_3, Q68DX3
[27] = molecular target: T11, LRRC7, Q96NW7
T11 sequence (Q96NW7 1440-1537, limits assumed, looked up): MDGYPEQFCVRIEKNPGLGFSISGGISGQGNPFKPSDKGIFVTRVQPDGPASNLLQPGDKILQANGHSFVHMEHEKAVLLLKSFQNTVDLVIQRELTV

[28] = plain residues with an end cap or a label only (N-terminal biotin on a linker: ttds)
[29] = plain residues with an end cap or a label only (N-terminal biotin on a linker: ado-ado)

Chain of DLG1_3, Q12959 (Q12959 457-571): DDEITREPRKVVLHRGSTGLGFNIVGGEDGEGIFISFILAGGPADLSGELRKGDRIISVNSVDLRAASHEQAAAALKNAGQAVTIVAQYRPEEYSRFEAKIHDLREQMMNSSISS
Chain of NHERF2_2, Q15599 (Q15599 142-238): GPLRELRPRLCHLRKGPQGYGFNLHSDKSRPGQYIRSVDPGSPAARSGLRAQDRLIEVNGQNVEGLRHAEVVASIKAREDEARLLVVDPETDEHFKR
Chain of DLG4_1, P78352 (P78352 62-152): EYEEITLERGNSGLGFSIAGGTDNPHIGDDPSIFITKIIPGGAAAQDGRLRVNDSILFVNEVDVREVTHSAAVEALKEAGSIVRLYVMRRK
Chain of TJP2_1, Q9UDY2 (Q9UDY2 24-128): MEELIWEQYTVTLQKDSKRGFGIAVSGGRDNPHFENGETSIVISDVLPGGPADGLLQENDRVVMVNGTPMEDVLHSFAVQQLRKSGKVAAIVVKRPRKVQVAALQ
Chain of Inadl_4, Q8NI35 (Q8NI35 547-651): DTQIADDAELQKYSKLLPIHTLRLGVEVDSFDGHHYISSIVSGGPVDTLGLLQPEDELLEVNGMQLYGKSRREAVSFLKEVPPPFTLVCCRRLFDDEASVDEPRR
Chain of FRMPD3, Q5JV73 (Q5JV73 12-100): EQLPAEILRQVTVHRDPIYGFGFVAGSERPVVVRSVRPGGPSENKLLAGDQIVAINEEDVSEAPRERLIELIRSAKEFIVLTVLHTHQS
Chain of CASK, O14936 (O14936 487-570): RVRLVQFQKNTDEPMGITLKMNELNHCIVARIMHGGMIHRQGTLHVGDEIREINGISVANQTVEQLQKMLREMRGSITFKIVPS
Chain of LIMK2, P53671 (P53671 143-248): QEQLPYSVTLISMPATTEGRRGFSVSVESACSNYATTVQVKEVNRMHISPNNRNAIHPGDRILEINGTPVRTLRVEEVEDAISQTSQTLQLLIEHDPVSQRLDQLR
Chain of GRIP2_6, Q9C0E4 (Q9C0E4 648-740): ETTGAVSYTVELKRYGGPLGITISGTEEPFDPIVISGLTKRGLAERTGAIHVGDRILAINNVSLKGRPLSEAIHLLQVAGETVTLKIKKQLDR
Chain of GRIP2_3, Q9C0E4 (Q9C0E4 238-339): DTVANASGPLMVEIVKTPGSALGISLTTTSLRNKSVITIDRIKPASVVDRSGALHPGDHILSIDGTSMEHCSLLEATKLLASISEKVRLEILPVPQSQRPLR
Chain of Inadl_8, Q8NI35 (Q8NI35 1425-1530): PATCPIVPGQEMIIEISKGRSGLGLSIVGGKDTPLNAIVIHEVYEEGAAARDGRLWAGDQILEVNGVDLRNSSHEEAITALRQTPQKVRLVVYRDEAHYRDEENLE
Chain of LNX1_1, Q8TBB1 (Q8TBB1 261-371): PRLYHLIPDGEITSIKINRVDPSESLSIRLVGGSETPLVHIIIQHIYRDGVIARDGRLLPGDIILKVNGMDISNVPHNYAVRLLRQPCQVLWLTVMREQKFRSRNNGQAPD
Chain of FRMPD2_3, Q68DX3 (Q68DX3 1073-1166): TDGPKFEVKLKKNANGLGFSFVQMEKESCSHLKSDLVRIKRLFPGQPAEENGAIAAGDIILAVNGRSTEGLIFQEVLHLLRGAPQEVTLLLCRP
Chain of LAP2, Q96RT1 (Q96RT1 other isoform, or with tags, fused parts or gaps): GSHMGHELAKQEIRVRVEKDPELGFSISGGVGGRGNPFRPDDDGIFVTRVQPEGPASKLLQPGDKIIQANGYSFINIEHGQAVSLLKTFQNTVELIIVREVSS
Chain of NHERF4_2, Q86UT5 (Q86UT5 220-308): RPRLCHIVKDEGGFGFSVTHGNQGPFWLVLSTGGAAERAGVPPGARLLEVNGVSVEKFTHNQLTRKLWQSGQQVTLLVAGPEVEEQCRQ

pKd [1, 28]: 3.5 | pKd [2, 28]: 3.78 | pKd [3, 28]: below the threshold | pKd [4, 28]: 4.52 | pKd [5, 28]: below the threshold | pKd [6, 28]: below the threshold | pKd [7, 28]: below the threshold | pKd [8, 28]: below the threshold | pKd [9, 28]: below the threshold | pKd [10, 28]: below the threshold | pKd [11, 28]: below the threshold | pKd [12, 28]: 4.48 | pKd [13, 28]: below the threshold | pKd [14, 28]: 4.06 | pKd [15, 28]: 4.42 | pKd [16, 28]: below the threshold | pKd [17, 28]: below the threshold | pKd [18, 28]: below the threshold | pKd [19, 28]: below the threshold | pKd [20, 28]: 5.63 | pKd [21, 28]: 3.86 | pKd [22, 28]: 4.14 | pKd [23, 28]: below the threshold | pKd [24, 28]: 4.94 | pKd [25, 28]: below the threshold | pKd [26, 28]: below the threshold | pKd [27, 28]: below the threshold
Binder: LDSQIQETSI [MAP4, P27816]

pKd [1, 29]: below the threshold | pKd [2, 29]: below the threshold | pKd [3, 29]: below the threshold | pKd [4, 29]: 5.06 | pKd [5, 29]: below the threshold | pKd [6, 29]: below the threshold | pKd [7, 29]: below the threshold | pKd [8, 29]: 3.88 | pKd [9, 29]: below the threshold | pKd [10, 29]: below the threshold | pKd [11, 29]: below the threshold | pKd [12, 29]: 4.67 | pKd [13, 29]: below the threshold | pKd [14, 29]: below the threshold | pKd [15, 29]: 3.87 | pKd [16, 29]: below the threshold | pKd [17, 29]: below the threshold | pKd [18, 29]: below the threshold | pKd [19, 29]: below the threshold | pKd [20, 29]: 5.03 | pKd [21, 29]: below the threshold | pKd [22, 29]: 3.55 | pKd [23, 29]: below the threshold | pKd [24, 29]: 4.61 | pKd [25, 29]: below the threshold | pKd [26, 29]: below the threshold | pKd [27, 29]: below the threshold
Binder: GFGEERESIL [KIDINS220, Q9ULH0]

pKd [1, 28]: 4.32 | pKd [2, 28]: 3.67 | pKd [3, 28]: below the threshold | pKd [4, 28]: 3.59 | pKd [5, 28]: below the threshold | pKd [6, 28]: below the threshold | pKd [7, 28]: below the threshold | pKd [8, 28]: 3.57 | pKd [9, 28]: below the threshold | pKd [10, 28]: below the threshold | pKd [11, 28]: below the threshold | pKd [12, 28]: below the threshold | pKd [13, 28]: below the threshold | pKd [14, 28]: 3.77 | pKd [15, 28]: below the threshold | pKd [16, 28]: below the threshold | pKd [17, 28]: below the threshold | pKd [18, 28]: below the threshold | pKd [19, 28]: 3.68 | pKd [20, 28]: below the threshold | pKd [21, 28]: 4.74 | pKd [22, 28]: below the threshold | pKd [23, 28]: below the threshold | pKd [24, 28]: 4.09 | pKd [25, 28]: below the threshold | pKd [26, 28]: below the threshold | pKd [27, 28]: 4.05
Binder: PKRPFVESNV [TANC2, Q9HCD6]
